# B1: Eptatretus stoutii FIL-Gamma including a polyhistidine tag (other)
# chain: MASHSSVSYRSVRTGGTSAMIGSSGYGGSSSSRAMGLGMGAAGLSMGGGSFRVGSAGIGGMGISSGIGGMGISSRAGGMSAYGGAASGGAGGFVSGGVPMLGYGGGAGGFIGGVSPGIMASPAFTAGRAITSAGMSGVVGTLGPAGGMVPSLVSRDEVKNILGTLNQRLASYVDKVRQLTIENETMEEELKNLTGGVPMSPDSTVNLENVETQVTEMLTEVSNLTLERVRLEIDVDHLRATADEIKSKYEFELGVRMQLETDIANMKRDLEAANDMRVDLDSKFNFLTEELTFQRKTQMEELNTLKQQFGRLGPVQTSVIELDNVKSVNLTDALNVMREEYQQVVTKNVQEAETYCKMQIDQIQGISTQTTEQISILDKEINTLEKELQPLNVEYQRLLTTYQTLGDRLTDLQNRESIDLVQFQNTYTRYEQEIEGNQVDLQRQLVTYQQLLDVKTALDAEIATYKKLLEGQELMVRTAMADDFAHATVVRSGTLGGASSSSVGYGASSTTLGAISGGYSTGGGASYSAGAGGASYSAGAGGASYGVGGGYSGGSSAMMEGSSSGGHSMYSSSSMKRSSSKSASASAGGYGTSGHDSTIILQQHHHHHH
# notes: also called gamma protein; hagfish intermediate filament gamma protein
# Biological target: T1, Eptatretus stoutii FIL-Alpha including a polyhistidine tag (Eptatretus stoutii, UniProt Q90501 1-643)
# T1 construct: Recombinant protein expressed in E. coli; also called alpha protein; hagfish intermediate filament alpha protein
# T1 sequence: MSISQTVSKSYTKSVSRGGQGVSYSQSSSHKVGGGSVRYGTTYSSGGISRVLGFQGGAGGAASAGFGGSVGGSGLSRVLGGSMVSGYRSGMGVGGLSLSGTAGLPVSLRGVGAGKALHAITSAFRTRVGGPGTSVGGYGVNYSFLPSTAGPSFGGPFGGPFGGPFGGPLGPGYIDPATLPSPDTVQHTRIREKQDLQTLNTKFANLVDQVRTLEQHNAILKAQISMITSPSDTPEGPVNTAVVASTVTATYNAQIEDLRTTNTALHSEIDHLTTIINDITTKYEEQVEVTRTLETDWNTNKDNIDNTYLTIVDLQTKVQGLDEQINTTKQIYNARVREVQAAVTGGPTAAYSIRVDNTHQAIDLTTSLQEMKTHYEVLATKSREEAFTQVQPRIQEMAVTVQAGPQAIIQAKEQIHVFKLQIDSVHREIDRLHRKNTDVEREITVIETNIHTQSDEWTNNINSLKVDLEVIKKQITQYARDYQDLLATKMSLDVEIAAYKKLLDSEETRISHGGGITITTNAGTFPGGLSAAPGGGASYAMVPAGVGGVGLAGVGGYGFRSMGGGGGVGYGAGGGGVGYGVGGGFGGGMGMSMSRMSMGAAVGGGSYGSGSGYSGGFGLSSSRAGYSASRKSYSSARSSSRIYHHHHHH
# Test: filament/thread self-assembly of refolded recombinant His-tagged proteins; filaments observed by microscopy
binder,measurement,value
B1,binding result,binds
